Publication PMC12850475

What was measured:
Protein A (SpA) [1] = molecular target: Protein A (SpA) (UniProt P38507); test: SPR
Protein A (SpA) [2] = molecular target: Protein A (SpA) (UniProt P38507); test: SPR; Protein A amine-coupled to a CM5 chip (channel 2, 122 RU); antibodies eluted by pH (50 mM sodium acetate pH 3.0) as analyte at 12.5 and 25 µg/mL in HBS-P; qualitative; percent able to bind calculated from a standard curve; triplicate

Q: For “human Immunoglobulin G purified from human blood plasma (antibody)”, which percentage of antibody still able to bind (Protein A (SpA) [1]) is on record?
A: 74.8%

Q: And the percentage of antibody still able to bind (Protein A (SpA) [2])?
A: 46.7%
